Tests used:
[1] = system: AncSZ; assay: phosphorylation enrichment, bacterial display (enrichment ratio); higher = better substrate or ligand; peptides without Tyr show the background
[2] = biological target: EPHB1 (UniProt P54762); assay: as above
[3] = biological target: EPHB2 (UniProt P29323); assay: as above
[4] = biological target: FGFR1 (UniProt P11362); assay: as above
[5] = biological target: FGFR3 (UniProt P22607); assay: as above
[6] = system: Fer (mouse); assay: as above
[7] = biological target: Fes (UniProt P07332); assay: as above
[8] = biological target: Fyn (UniProt P06241); assay: as above
[9] = biological target: Hck (UniProt P08631); assay: as above
[10] = biological target: Jak2 (UniProt O60674); assay: as above
[11] = biological target: MERTK (UniProt Q12866); assay: as above
[12] = system: c-Abl (mouse); assay: as above
[13] = system: c-Src; assay: as above
[14] = biological target: Grb2 SH2 (UniProt P62993); assay: SH2 binding enrichment of the phosphorylated peptide, bacterial display (enrichment ratio); higher = better substrate or ligand; peptides without Tyr show the background
[15] = biological target: SHP2-C SH2; assay: as above
[16] = biological target: c-Src SH2; assay: as above
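For SH2 binding enrichment of the phosphorylated peptide, bacterial display in this document: peptide library displayed on the E. coli surface as eCPX fusions, selected cells deep-sequenced, score is each peptide's frequency after selection divided by its frequency in the input.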
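For phosphorylation enrichment, bacterial display in this document: 11-residue human phosphosite peptides and single-mutation variants displayed on the E. coli surface, counted by deep sequencing, each peptide's frequency after selection divided by its frequency in the unselected input library; frequency after pTyr selection over input frequency; kinase dosed for 20-30% of maximal phosphorylation in three min.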

Chain of Fyn (P06241 whole entry, looked up): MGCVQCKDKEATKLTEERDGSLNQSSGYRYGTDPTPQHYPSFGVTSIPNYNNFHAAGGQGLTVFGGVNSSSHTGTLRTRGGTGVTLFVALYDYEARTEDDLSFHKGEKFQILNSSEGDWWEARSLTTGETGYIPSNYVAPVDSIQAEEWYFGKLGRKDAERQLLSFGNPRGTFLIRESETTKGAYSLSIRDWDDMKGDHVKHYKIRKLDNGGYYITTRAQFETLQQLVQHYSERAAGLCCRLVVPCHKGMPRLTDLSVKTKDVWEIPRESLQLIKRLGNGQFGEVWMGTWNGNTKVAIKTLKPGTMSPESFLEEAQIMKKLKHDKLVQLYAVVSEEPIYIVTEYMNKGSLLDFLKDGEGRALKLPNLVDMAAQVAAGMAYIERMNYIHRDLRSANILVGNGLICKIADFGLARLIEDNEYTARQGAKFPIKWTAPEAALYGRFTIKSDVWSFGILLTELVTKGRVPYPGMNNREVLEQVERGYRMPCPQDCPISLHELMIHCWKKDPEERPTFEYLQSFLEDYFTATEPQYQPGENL
Chain of FGFR3 (P22607 whole entry, looked up): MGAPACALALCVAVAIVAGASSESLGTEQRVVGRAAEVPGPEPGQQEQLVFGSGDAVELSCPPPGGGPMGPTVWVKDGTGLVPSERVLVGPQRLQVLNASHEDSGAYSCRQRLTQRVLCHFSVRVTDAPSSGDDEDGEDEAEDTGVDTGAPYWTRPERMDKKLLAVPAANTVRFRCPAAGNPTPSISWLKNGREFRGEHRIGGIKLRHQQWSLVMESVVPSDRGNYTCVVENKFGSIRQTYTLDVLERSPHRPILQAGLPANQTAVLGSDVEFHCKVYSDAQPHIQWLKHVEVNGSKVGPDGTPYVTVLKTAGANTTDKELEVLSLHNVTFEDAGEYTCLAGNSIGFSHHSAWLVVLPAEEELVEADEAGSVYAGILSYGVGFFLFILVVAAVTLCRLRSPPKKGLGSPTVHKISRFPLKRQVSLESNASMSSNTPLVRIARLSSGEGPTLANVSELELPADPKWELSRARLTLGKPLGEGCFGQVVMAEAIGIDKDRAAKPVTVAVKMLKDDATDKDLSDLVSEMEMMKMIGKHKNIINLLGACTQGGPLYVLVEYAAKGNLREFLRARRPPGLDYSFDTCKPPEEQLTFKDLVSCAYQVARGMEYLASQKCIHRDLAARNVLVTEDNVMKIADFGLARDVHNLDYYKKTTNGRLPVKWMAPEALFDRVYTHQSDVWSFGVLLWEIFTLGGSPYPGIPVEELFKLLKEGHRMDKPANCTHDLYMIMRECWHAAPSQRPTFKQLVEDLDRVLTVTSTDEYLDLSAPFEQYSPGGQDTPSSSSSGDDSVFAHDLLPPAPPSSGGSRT
Chain of MERTK (Q12866 whole entry, looked up): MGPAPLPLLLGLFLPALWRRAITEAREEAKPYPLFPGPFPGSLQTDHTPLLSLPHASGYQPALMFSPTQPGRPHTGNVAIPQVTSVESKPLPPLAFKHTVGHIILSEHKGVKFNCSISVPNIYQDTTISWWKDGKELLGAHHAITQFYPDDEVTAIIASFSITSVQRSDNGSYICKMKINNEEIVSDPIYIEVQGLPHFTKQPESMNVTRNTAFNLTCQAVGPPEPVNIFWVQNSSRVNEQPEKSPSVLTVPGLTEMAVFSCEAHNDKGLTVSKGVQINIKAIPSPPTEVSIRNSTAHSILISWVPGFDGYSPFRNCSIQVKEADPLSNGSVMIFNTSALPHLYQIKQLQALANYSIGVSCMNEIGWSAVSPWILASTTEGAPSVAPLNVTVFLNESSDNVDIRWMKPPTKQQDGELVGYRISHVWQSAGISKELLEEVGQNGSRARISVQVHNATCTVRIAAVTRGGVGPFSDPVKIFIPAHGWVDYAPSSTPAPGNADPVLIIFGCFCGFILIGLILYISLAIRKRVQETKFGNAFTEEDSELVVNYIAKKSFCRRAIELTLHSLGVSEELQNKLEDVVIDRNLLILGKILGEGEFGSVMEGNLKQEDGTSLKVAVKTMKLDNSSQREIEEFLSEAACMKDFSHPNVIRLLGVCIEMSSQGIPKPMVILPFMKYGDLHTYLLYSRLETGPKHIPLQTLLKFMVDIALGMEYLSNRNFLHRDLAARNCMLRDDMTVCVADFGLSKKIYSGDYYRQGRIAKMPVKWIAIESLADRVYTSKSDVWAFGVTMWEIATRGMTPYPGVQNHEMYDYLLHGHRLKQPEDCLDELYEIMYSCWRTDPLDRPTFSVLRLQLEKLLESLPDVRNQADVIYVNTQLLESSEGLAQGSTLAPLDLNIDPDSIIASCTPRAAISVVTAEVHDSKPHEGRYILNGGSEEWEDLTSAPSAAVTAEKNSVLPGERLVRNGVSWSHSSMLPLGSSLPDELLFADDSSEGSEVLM
Chain of Jak2 (O60674 whole entry, looked up): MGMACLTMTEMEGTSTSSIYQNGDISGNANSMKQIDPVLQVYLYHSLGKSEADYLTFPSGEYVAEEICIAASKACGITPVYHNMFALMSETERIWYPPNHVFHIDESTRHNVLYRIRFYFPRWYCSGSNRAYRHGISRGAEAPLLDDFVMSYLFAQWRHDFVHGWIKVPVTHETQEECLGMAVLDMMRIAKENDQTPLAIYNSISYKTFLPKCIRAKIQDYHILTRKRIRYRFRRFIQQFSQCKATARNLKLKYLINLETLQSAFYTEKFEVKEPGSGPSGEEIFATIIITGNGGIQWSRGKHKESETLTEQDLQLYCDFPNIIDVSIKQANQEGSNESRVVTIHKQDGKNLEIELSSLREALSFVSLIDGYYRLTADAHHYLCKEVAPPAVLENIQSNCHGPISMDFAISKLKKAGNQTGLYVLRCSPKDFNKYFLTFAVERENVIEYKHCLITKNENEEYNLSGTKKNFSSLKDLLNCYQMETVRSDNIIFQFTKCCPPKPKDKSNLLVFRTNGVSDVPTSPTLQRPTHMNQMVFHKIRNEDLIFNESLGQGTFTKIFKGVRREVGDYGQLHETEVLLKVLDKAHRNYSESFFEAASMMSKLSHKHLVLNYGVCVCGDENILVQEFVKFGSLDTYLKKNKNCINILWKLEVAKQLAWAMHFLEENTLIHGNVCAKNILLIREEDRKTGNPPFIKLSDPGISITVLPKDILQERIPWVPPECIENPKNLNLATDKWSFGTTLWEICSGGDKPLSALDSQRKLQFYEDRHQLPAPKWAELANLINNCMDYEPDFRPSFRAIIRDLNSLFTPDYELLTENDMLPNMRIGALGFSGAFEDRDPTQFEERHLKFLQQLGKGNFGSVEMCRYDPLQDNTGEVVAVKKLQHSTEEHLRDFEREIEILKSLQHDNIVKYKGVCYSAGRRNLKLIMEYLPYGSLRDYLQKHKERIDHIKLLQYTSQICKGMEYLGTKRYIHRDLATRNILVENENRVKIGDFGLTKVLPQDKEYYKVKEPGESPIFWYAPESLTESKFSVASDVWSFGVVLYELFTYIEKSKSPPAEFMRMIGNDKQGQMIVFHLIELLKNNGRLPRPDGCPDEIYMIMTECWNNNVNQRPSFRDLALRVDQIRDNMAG
Chain of EPHB2 (P29323 whole entry, looked up): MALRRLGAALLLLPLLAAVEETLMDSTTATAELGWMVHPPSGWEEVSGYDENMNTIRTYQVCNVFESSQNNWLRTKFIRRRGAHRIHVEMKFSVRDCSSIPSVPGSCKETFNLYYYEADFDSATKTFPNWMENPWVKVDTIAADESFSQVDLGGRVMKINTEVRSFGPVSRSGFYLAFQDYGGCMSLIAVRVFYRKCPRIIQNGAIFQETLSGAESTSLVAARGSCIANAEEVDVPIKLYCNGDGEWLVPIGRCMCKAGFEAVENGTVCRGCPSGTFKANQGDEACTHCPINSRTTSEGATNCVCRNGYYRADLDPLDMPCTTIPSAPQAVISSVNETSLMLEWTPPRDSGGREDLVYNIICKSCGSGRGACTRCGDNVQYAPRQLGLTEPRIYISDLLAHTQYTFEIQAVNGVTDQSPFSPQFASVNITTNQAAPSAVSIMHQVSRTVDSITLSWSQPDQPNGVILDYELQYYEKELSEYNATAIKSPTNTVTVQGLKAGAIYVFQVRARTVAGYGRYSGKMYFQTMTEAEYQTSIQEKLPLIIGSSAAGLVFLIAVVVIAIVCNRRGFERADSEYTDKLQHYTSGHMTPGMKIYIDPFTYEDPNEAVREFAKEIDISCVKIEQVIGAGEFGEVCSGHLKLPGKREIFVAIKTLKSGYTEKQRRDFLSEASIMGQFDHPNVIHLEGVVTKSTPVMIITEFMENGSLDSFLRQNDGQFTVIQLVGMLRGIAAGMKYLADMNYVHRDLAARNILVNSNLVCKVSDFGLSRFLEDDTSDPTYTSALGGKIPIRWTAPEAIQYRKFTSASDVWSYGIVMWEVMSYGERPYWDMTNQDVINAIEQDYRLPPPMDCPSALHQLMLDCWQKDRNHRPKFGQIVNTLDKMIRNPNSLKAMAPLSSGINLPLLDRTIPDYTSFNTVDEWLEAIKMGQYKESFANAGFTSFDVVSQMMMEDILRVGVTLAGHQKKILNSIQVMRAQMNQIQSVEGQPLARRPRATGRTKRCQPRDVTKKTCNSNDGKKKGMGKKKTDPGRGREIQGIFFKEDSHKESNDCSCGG
Chain of Hck (P08631 whole entry, looked up): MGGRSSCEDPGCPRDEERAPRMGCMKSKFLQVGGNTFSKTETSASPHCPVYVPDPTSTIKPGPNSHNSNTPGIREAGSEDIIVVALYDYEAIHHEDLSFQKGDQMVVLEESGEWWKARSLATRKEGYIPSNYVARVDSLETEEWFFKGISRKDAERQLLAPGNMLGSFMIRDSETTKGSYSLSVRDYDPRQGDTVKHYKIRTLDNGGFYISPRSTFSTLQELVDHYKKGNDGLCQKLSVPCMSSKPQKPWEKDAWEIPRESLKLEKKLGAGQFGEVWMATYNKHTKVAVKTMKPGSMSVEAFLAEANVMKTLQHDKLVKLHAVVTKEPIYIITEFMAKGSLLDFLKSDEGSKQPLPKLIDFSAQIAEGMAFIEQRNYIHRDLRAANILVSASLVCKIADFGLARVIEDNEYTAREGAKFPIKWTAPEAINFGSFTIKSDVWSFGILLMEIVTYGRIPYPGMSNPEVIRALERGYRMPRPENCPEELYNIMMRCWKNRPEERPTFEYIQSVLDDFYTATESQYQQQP

Sequence	phosphorylation enrichment [1]	phosphorylation enrichment [2]	phosphorylation enrichment [3]	phosphorylation enrichment [4]	phosphorylation enrichment [5]	phosphorylation enrichment [6]	phosphorylation enrichment [7]	phosphorylation enrichment [8]	phosphorylation enrichment [9]	phosphorylation enrichment [10]	phosphorylation enrichment [11]	phosphorylation enrichment [12]	phosphorylation enrichment [13]	SH2 binding enrichment [14]	SH2 binding enrichment [15]	SH2 binding enrichment [16]
SYCYRYCCAAR [SUMF1_Y344_R345C]	0.968	0.392	0.553	0.47	0.769	0.457	0.976	0.43	0.497	0.679	0.437	0.622	0.369	1.13	0.627	0.931
TENAGYFFRVS	1.25	0.614	0.565	0.442	0.853	0.536	1.36	0.389	0.457	1.45	0.369	1.15	0.41	0.724	0.583	0.466
VLTSKHRGGGG [HBA1_Y141_Y141H]	0.486	0.318	0.225	0.464	0.419	0.222	0.396	0.527	0.322	0.332	0.677	0.418	0.344	1.02	0.751	0.823
LYRYGYANTSE [SI_Y1233_C1229Y]	0.806	0.437	0.39	0.46	0.507	0.32	0.775	0.383	0.395	0.6	0.36	0.511	0.351	2.63	1.31	2.44
VGTKRYVAPEV [ACVRL1_Y375_M376V]	0.61	0.309	0.444	0.332	0.464	0.474	0.658	0.451	0.351	0.477	0.422	0.544	0.458	0.724	0.403	0.354
DAKTIYDFTDT [PDK1_Y136_A134T]	1.07	0.696	0.604	0.508	0.729	1.61	1.07	3.52	1.33	0.876	1.48	0.724	3.32	0.748	0.58	0.46
SIRYNYLLDVL [FGFR4_Y237]	0.943	0.394	0.524	0.479	0.636	0.47	0.745	0.495	0.603	0.674	0.509	0.821	0.443	0.789	0.747	1.7
RPGSGYTKIMR [PKLR_Y564_N566K]	0.546	0.415	0.303	0.372	0.368	0.42	0.525	0.404	0.409	0.41	0.48	0.396	0.348	0.999	1.69	2.98
QEIATYPRLLE [KRT14_Y415_R416P]	1.08	0.581	1.04	0.77	0.869	0.792	1.62	0.611	0.845	1.43	0.515	1.07	0.595	0.575	0.705	0.443
PMDGEYFTLQI [TP53_Y327_L323M]	4.04	1.5	0.753	12	9.07	1.57	1.95	4.35	2.79	4.86	0.604	2.02	5.21	0.978	0.407	0.394
ISDNACQYMLT [MYH7_Y162_Y162C]	1	0.629	0.583	0.623	0.687	0.587	1.05	0.546	0.518	1.18	0.75	0.679	0.811	0.752	0.748	0.511
EPNSRYTYKLE [USH2A_Y3745]	0.684	0.537	0.46	0.438	0.534	0.27	0.895	0.492	0.439	0.628	0.384	0.753	0.501	1.02	0.768	0.663
GRRNTCYASIA [ACADM_Y352_Y352C]	0.557	0.336	0.365	0.333	0.432	0.33	0.644	0.442	0.477	0.48	0.407	0.5	0.495	0.972	7.14	3.58
RAIELCNDKEK [OTULIN_Y244_Y244C]	0.852	0.406	0.76	0.354	0.425	0.471	1.38	0.509	0.381	0.752	0.395	0.682	0.481	1	0.762	0.753
HHIDFYKKTTN [FGFR1_Y654_YF]	0.855	0.503	0.418	0.629	0.457	0.604	1.19	0.435	0.378	0.53	0.408	0.491	0.489	1.05	0.61	0.325
YRVDCYKNFVA [FHL1_Y213_C209R]	0.984	0.559	0.595	0.565	0.753	0.493	1.22	0.504	0.487	0.837	0.507	0.543	0.415	1.51	0.984	0.556
PSAELYSNALP [PDGFRB_Y716]	1.55	2.63	1.91	1.79	1.73	7.66	1.79	1.66	3.02	0.849	7.96	0.96	1.38	1.19	0.734	0.629
VTPSEYLEIVR [TMEM130_Y412_E407V]	0.969	1.21	0.618	0.557	0.736	0.45	0.859	0.51	0.751	0.762	0.387	0.681	0.44	0.763	0.825	0.521
QTPVLYAMLFH [MPZ_Y220_D224Y_YF]	0.771	6.9	4.17	2.41	2.13	6.25	1.23	4.56	5.5	1.39	7.73	1.61	4.04	1.03	0.778	0.601
MSSAGYRAAEG [COL6A3_Y543_T538M]	0.468	0.389	0.334	0.425	0.444	0.379	0.495	0.387	0.375	0.529	0.372	0.497	0.404	0.788	0.609	0.396
EDEGLYTVRVP [MYOM3_Y343_M344T]	1.64	0.766	0.692	0.633	0.939	1.38	1.24	3.52	4.08	1.04	1.84	0.737	3.4	0.83	0.617	0.488
IPGGIYNADLN [CST4_Y35_D36N]	0.748	0.514	0.366	0.542	0.516	0.472	0.95	1.27	1.27	0.746	0.443	0.654	1.36	0.943	0.646	0.635
TFQFKYPEGSS [TGM4_Y440_E437Q_YF]	0.841	0.496	0.478	0.521	0.722	0.363	0.943	0.529	0.491	0.69	0.44	0.564	0.427	0.955	0.896	0.568
TYGQVYKGRHV [TNIK_Y40]	0.484	0.507	0.506	0.493	0.533	0.528	0.488	8.37	6.44	0.482	0.942	0.711	6.62	0.974	0.964	0.676
RICRRYCQVLN [IQCF1_Y144_R141C]	1.03	0.676	0.624	0.857	0.66	0.654	1.18	0.748	0.7	0.817	0.758	0.701	0.738	0.537	0.76	0.329
NSFKYYMSDDI [ATRX_Y204_C200S]	0.87	0.503	0.542	0.567	0.659	0.501	1.01	0.434	0.443	0.871	0.451	0.627	0.499	0.943	0.746	1.05
TAALWYIFLHT [ENG_Y612_S615L_YF]	1.32	0.832	0.939	0.845	1.2	0.577	1.86	0.555	0.689	1.48	0.555	1.24	0.508	0.98	1.09	0.593
AELKLYSGAQT [ZAP70_Y178_R175L]	0.877	0.567	0.571	0.39	0.595	0.485	0.956	0.455	0.646	0.82	0.395	0.526	0.362	0.679	0.637	0.518
CTTIRYNYMCN [TP53_Y234_H233R]	0.787	0.461	0.583	0.475	0.544	0.479	0.81	0.464	0.449	0.674	0.457	0.491	0.417	1.48	1.55	3.56

From the supplement of paper PMC10065799, “High-throughput profiling of sequence recognition by tyrosine kinases and SH2 domains using bacterial peptide display” (eLife, 2023)
